From publication PMC9808001 (2022)

Target: RAB1A (Homo sapiens (Human), UniProt P62820)
Assay: BLI

Chain of RAB1A (P62820 6-177): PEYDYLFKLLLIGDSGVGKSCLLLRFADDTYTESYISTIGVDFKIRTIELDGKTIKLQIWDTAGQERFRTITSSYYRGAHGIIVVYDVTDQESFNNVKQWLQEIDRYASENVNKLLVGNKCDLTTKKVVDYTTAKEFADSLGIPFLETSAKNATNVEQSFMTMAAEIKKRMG

Kd: > 500 nM
B1: WDR44 (protein)
chain: VMGPQRPRSNSGRELTDEEILASVMIKNLDTGEEIPLSLAEEKLPTGINPLTLHIM
